Here are results for four molecules from publication PMC3790809 (2013).

The target of assay [1] is untagged YsaL (YE3555). Nature of the assay: SPR. For orientation: SPR reads the build-up and loss of mass on a sensor chip optically.
Assay [2] concerns the target untagged YsaL (YE3555). Nature of the assay: SPR. The source holds these as a separate data set.
The target in assay [3] is untagged YsaL (YE3555). The experiment in a line: SPR; refolded YsaN.
Assay [4] has as its target untagged YsaL (YE3555). The experiment in a line: SPR. This is another data set of the same source.

B1: YsaNΔ(1–5)-His (domain or fragment)
chain: SCAHPSRIHGCLLEAPLHGVFIGEICLIERDLCQPEVIAKAQVVGFKEGQTILSLIGRAQGLTREVVIRPTGQPFVFEMGEHLAGKIYNAAGEEVGVLSNATASSEPLFTTLCRVDNPPVSVNLRRPVTTPLVTGVRAIDGLLTCGQGQRMGIFAAAGSGKTSLMSMIMNHAVADICVIALIGERGREVTEFIHELQTSPRAAQTILVYATSDSPAVERCNAALLATAMAEYFRDQGKDVLLFVDSMTRYARALRDVALAAGELPARRGYPASVFEQLPLLLERPGALQHGSITAFYTVLLESEEESDPIGDEIRSIIDGHIYLSAQLAGRGHYPAIDILHSISRVFSKVTTPQHRQDAAKTRDMLGRLAQIQLYLDLGEYQRGENTDNDHALDNRDVIEGFLQQAMEEPGEFSTTLNQLRELAN
For the molecule B1, the dissociation constant (Kd) (in general, the equilibrium constant for the complex coming apart) with untagged YsaL (YE3555) [1] worked out at 500 µM.

B2: YsaNΔ(411–430)-His (domain or fragment)
chain: MNLFDSCAHPSRIHGCLLEAPLHGVFIGEICLIERDLCQPEVIAKAQVVGFKEGQTILSLIGRAQGLTREVVIRPTGQPFVFEMGEHLAGKIYNAAGEEVGVLSNATASSEPLFTTLCRVDNPPVSVNLRRPVTTPLVTGVRAIDGLLTCGQGQRMGIFAAAGSGKTSLMSMIMNHAVADICVIALIGERGREVTEFIHELQTSPRAAQTILVYATSDSPAVERCNAALLATAMAEYFRDQGKDVLLFVDSMTRYARALRDVALAAGELPARRGYPASVFEQLPLLLERPGALQHGSITAFYTVLLESEEESDPIGDEIRSIIDGHIYLSAQLAGRGHYPAIDILHSISRVFSKVTTPQHRQDAAKTRDMLGRLAQIQLYLDLGEYQRGENTDNDHALDNRDVIEGFLQQ
The molecule B2 registered a Kd with untagged YsaL (YE3555) [2] of 260 nM. In other words, the sub-micromolar range.

B3: YsaNflr-His (full length YsaN, refolded) (enzyme)
chain: MNLFDSCAHPSRIHGCLLEAPLHGVFIGEICLIERDLCQPEVIAKAQVVGFKEGQTILSLIGRAQGLTREVVIRPTGQPFVFEMGEHLAGKIYNAAGEEVGVLSNATASSEPLFTTLCRVDNPPVSVNLRRPVTTPLVTGVRAIDGLLTCGQGQRMGIFAAAGSGKTSLMSMIMNHAVADICVIALIGERGREVTEFIHELQTSPRAAQTILVYATSDSPAVERCNAALLATAMAEYFRDQGKDVLLFVDSMTRYARALRDVALAAGELPARRGYPASVFEQLPLLLERPGALQHGSITAFYTVLLESEEESDPIGDEIRSIIDGHIYLSAQLAGRGHYPAIDILHSISRVFSKVTTPQHRQDAAKTRDMLGRLAQIQLYLDLGEYQRGENTDNDHALDNRDVIEGFLQQAMEEPGEFSTTLNQLRELAN
In the assay with untagged YsaL (YE3555) [3], B3 yielded a Kd of 42 nM.

B4: YsaNΔ(426–430)-His (domain or fragment)
chain: MNLFDSCAHPSRIHGCLLEAPLHGVFIGEICLIERDLCQPEVIAKAQVVGFKEGQTILSLIGRAQGLTREVVIRPTGQPFVFEMGEHLAGKIYNAAGEEVGVLSNATASSEPLFTTLCRVDNPPVSVNLRRPVTTPLVTGVRAIDGLLTCGQGQRMGIFAAAGSGKTSLMSMIMNHAVADICVIALIGERGREVTEFIHELQTSPRAAQTILVYATSDSPAVERCNAALLATAMAEYFRDQGKDVLLFVDSMTRYARALRDVALAAGELPARRGYPASVFEQLPLLLERPGALQHGSITAFYTVLLESEEESDPIGDEIRSIIDGHIYLSAQLAGRGHYPAIDILHSISRVFSKVTTPQHRQDAAKTRDMLGRLAQIQLYLDLGEYQRGENTDNDHALDNRDVIEGFLQQAMEEPGEFSTTLNQL
On to B4, for which the equilibrium dissociation constant (Kd) in the assay with untagged YsaL (YE3555) [4] amounted to 114 nM.
